This is an account of results in paper PMC7093966.

For this assay, the target named is FITC-Aβ42 (UniProt P05067). Put plainly: solid-phase fluorescence binding assay (FITC-peptide on coated plate); black 96-well plates coated with 50 μg/mL rat-tail collagen-I or 10% BSA; 1 μM FITC-Aβ42 in RPMI with or without 200 μg/mL HDL (total, apoE-depleted or apoE-enriched) or BSA; 24 h at 37 °C, 5% CO2; PBS washes; excitation 490 nm, emission 520 nm.
Chain of FITC-Aβ42 (P05067 672-713): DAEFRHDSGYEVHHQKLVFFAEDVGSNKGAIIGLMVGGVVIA

Chain of High density lipoprotein (HDL), density 1.063-1.21 g/mL (P02649 whole entry, looked up): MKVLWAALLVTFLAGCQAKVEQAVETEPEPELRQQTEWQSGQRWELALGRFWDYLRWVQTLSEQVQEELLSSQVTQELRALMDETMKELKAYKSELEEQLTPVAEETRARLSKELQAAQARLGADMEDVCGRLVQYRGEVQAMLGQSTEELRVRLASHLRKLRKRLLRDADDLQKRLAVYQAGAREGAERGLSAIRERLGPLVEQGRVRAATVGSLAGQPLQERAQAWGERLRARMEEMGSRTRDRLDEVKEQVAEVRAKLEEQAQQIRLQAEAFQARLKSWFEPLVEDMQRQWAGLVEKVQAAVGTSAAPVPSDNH
Chain of High density lipoprotein (HDL), density 1.063-1.21 g/mL (P02652 whole entry, looked up): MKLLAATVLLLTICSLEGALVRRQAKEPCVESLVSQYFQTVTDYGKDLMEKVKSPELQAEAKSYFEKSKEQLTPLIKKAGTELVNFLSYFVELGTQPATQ
Chain of High density lipoprotein (HDL), density 1.063-1.21 g/mL (P02647 whole entry, looked up): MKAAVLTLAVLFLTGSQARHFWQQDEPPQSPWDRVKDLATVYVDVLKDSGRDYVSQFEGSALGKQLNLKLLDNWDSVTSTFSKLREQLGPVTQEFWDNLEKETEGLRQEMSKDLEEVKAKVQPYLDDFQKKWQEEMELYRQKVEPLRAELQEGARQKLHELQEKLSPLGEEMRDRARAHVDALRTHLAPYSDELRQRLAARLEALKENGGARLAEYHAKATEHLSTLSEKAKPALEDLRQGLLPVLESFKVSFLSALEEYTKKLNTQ

On to “High density lipoprotein (HDL), density 1.063-1.21 g/mL (from UniProt P02647 19-267; P02652 19-100; P02649 19-317) (complex)”, for which the fold reduction of Aβ42 binding to BSA came out at 11.8 fold and the fold reduction of Aβ42 binding to collagen-I stood at 7 fold.
